In this test the target is Recombinant human heterodimeric S100A8/A9 (human) (UniProt P05109). The test can be described thus: ELISA.
UniProt P05109, sequence (P05109 whole entry, chain 1 of 2): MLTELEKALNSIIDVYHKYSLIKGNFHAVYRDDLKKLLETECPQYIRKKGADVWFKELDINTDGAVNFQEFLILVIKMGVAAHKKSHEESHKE
UniProt P05109, sequence (P06702 whole entry, chain 2 of 2, further chain): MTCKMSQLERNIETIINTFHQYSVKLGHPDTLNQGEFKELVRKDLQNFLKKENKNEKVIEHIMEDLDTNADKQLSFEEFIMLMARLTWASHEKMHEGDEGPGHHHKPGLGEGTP

Consider “recombinant soluble GPIbα (His-17-Leu505) (domain or fragment)”, for which the EC50 was 130 nM.

These data come from PMC10653093.
